The test system of experiment [1] is FGF21 receptor. The experiment in a line: Erk1/2 phosphorylation assay: agonist activity in 293T HEK hKLB cells. The class given is cell-based, human. As to conditions: for IC50: full length FGF21 analogs, tested in triplicate. As to the method: Cells were cultured in 10% Fetal Bovine Serum containing DMEM High glucose GLUTAMAX® at 37 C, 95% humidity, 5% CO2. For generating the cell line with stable expression, human KLB gene was synthesized by Genscript and subcloned into pcDNA3.1(+) with ZEOCIN® resistance vector (INVITROGEN®) by NheI and NotI restriction enzyme sites. HEK 293T cells were obtained from ATCC and were transiently transfected at 80% confluency using Lipofectamine 3000 (Invitrogen). Selection for KLB-expressing cells was initiated 48 hours post-transfection in the growth media containing 100 μg/ml of ZEOCIN® (Gibco) and continued for 4 weeks with fresh media added every third day. Human KLB expression in pooled cells was confirmed by Western blot and a functional FGF21 MAPK phosphorylation assay.
Sequence of FGF21 receptor (Q86Z14 whole entry): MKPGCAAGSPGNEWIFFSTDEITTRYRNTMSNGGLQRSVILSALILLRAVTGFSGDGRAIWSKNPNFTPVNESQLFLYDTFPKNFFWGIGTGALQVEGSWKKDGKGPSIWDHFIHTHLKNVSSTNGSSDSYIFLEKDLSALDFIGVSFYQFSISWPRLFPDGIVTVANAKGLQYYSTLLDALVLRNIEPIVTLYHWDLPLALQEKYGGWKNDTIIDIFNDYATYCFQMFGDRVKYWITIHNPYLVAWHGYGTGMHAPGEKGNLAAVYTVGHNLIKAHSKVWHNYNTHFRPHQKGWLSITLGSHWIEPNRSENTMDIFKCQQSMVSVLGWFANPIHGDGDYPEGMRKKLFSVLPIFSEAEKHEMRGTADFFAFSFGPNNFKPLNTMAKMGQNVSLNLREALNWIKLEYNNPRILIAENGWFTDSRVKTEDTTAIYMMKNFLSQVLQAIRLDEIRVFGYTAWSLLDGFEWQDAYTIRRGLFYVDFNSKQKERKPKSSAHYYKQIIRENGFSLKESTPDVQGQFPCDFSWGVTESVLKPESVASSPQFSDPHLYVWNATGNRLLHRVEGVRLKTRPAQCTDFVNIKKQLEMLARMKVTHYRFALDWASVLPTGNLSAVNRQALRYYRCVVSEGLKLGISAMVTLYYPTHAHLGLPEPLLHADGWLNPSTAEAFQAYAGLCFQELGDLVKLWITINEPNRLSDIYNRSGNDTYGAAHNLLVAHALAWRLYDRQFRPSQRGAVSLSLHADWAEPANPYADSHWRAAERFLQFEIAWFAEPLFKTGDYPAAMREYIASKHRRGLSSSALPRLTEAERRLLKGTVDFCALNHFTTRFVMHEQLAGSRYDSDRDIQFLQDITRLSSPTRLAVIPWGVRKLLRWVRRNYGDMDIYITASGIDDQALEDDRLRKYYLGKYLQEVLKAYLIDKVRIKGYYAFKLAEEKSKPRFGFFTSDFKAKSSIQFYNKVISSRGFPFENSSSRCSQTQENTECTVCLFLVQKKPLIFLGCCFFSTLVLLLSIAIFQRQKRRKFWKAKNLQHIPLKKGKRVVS
293 HEK cells expressing hKLB were plated to 90% confluency in 96 well plates coated with poly-D-Lysine. Cells were serum starved for three hours in 0.1% BSA containing media prior to stimulation with protein and/or an antagonist peptide for ten minutes at 37° C. The cell lysate was used for the detection of phospho-Erk1/2 levels by AlphaSureFire kit using the prescribed protocol. The degree of biochemical activation was recorded and analyzed using Origin software by logistic curve fitting. Tests at each concentration were done in triplicates, and the standard deviation is as shown in the graphs. The calculation of maximal activities was done keeping the FGF21 157-181 or FGF19 169-194 peptide activity as standard. The difference between the Erk1/2 phosphorylation signal for the highest (10 μM) and the lowest (0 μM) tested dose for native peptide was considered as 100% and accordingly all the other values were assigned.

The target in experiment [2] is T1, mouse KLB (Mus musculus, UniProt P16092+Q99N32).
T1 construct: expressed in transfected cells
T1 sequence (Q99N32 whole entry): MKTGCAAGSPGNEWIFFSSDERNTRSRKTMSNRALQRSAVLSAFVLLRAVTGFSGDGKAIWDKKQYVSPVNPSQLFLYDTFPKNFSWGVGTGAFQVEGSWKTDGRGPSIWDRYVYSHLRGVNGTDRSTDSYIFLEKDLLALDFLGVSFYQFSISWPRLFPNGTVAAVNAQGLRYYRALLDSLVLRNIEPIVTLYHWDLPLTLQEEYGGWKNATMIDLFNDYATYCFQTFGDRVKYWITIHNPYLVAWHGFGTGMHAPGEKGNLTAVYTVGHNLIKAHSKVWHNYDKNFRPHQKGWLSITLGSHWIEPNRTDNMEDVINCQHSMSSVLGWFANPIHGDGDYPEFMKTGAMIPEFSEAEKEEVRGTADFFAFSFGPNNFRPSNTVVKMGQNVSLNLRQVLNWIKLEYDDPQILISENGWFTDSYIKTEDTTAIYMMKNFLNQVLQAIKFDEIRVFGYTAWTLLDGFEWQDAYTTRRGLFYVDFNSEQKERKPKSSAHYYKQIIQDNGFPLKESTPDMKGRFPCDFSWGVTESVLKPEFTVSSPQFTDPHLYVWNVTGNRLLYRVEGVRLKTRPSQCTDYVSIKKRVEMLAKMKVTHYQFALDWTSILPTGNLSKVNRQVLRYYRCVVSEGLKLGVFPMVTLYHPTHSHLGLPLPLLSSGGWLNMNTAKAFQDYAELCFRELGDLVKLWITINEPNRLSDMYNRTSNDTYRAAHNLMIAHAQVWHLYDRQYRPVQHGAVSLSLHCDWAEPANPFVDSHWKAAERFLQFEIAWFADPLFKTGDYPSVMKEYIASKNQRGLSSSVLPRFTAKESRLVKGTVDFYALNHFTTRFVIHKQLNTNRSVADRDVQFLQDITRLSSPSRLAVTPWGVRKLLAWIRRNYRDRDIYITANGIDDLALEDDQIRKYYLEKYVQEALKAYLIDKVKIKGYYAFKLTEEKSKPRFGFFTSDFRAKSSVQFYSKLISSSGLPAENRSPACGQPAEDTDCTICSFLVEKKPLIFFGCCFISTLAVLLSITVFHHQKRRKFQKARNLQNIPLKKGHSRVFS
T1 sequence (P16092 22-822): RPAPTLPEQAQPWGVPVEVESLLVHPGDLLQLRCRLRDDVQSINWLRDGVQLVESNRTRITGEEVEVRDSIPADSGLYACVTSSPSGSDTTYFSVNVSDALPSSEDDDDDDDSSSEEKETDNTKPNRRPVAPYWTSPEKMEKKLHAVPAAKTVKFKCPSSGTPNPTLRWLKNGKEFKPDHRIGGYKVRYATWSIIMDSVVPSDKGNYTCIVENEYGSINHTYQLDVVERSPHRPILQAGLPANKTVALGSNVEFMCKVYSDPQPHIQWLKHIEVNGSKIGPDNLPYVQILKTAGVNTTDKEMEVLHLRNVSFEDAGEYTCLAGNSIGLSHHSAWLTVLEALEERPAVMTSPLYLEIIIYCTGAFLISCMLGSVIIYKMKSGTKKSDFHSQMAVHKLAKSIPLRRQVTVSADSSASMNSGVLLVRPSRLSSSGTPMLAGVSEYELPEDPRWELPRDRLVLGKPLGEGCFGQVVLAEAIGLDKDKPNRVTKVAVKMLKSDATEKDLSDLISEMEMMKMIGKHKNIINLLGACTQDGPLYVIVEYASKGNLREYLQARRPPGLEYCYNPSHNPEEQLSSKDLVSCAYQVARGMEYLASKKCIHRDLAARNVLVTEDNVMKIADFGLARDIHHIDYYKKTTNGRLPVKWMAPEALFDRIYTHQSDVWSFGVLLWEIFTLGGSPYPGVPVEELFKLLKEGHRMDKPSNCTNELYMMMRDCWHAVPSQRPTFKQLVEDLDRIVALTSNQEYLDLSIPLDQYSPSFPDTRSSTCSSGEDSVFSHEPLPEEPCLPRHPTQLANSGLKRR
The experiment in a line: agonism in cells overexpressing mouse KLB. Type of experiment: cell-based. The settings on record: FIG. 11B, read-out: potency (agonism).

Experiment [3] is described as follows: in vivo administration of FGF analogs to mice on diabetogenic diet. The settings on record: 0.3 or 1.0 mg/kg daily subcutaneous, relative to native FGF21; for change in body weight: 6 days. Further details: species or system C57Bl/6 mice. As to the method:
C57Bl/6 mice were obtained from Jackson Laboratories and fed a diabetogenic diet from Research Diets: a high-sucrose diet with 58% kcal from fat. Mice were group-housed on a 12:12-h light-dark cycle at 22° C. with free access to food and water. All studies were approved by and performed according to the guidelines of the Institutional Animal Care and Use Committee of the University of Cincinnati. All mice were treated by daily subcutaneous injections delivered in physiologically buffered saline at a dose of 0.3 or 1 mg/kg. Animals were weighed and food consumption was measured each day.
Unless indicated otherwise, all statistical analyses were performed using GraphPad Prism. The analysis of the results obtained in the in vivo experiments was performed using one-way ANOVAs followed by Tukey post hoc tests. P values lower than 0.05 were considered significant. The results are presented as means±s.e.m. of 7-8 replicates per group. Receptor activation data is ±s.d.
The effect of FGF analog V2-0278-1A on mice was investigated by administering either vehicle, FGF21 (at 0.3 mg/kg or 1.0 mg/kg) or V2-0278-1A (at 0.3 mg/kg or 1.0 mg/kg) and monitoring weight over the course of 6 days of treatment.

Where [4] appears, read: FIG. 11A, cells overexpressing human KLB, read-out: potency (agonism).
Where [5] appears, read: FIGS. 9A/9B, full length proteins, Erk1/2 phosphorylation.
Setting [6] is: FIGS. 9A/9B, full length proteins, Erk1/2 phosphorylation, read-out: EC-50.
The mark [7] stands for this setting: FIG. 12, cells overexpressing human KLB, read-out: potency.

Changes are numbered by the printed parent chain. Names may count otherwise. “And” between values parts separate entries of the source, which are not always exact repeats. Equal entries are not always repeated. Where two headings read alike, the source gives them in different places.

“FGF19: native full length FGF19 protein [reference compound]”: the EC50 in experiment [1] (setting [4]) came out at 65.8 ± 58.2 nM; in experiment [1] (setting [6]), 148 nM; in experiment [2] it was 25.7 ± 21.3 nM. Moreover, the “% maximal activity” value in experiment [1] (setting [5]) is 27%.

B1: 0278-1A: fusion of the N-terminus of FGF21 and C-terminal peptide FGF19 A26 (protein, listed as Homo sapiens)
chain: HPIPDSSPLLQFGGQVRQRYLYTDDAQQTEAHLEIREDGTVGGAADQSPESLLQLKALKPGVIQILGVKTSRFLCQRPDGALYGSLHFDPEACSFRELLLEDGYNVYQSEAHGLPLHLPGNKSPHRDPAPRGPARFLPLPGLPPALPEPPGILAPQLETDSMDPFGLVTGLEAVRSPSFEA
Take B1: the EC50 in experiment [1] (setting [4]) came to 1.82 ± 0.37 nM; in experiment [1] (setting [7]), 1.13 ± 0.28 nM; in experiment [2], 2.15 ± 0.54 nM.

B2: V2-0278-1A: 0278-1A with A31C, G43C, L98D, L100K, N121D, D127K (protein, listed as Homo sapiens)
chain: B1 chain with A31C, G43C, L98D, L100K, N121D, D127K
As to B2, in experiment [1] (setting [7]), the EC50 amounted to 0.35 ± 0.12 nM. Also, in experiment [1] (cells overexpressing human KLB), the “fold higher potency versus 0278-1A” value was 2-3 ×. Further, in experiment [3], the “change in body weight” value is reported as “enhanced weight loss” and the food intake entry was “reduced food intake”. Also, in experiment [3] (listed as 0361), the “change in body weight” value is “superior change in body weight” and the food intake entry is reported as “greater reduction in total food intake”.

B3: FGF21: native full length mature FGF21 protein (protein, listed as Homo sapiens)
chain: HPIPDSSPLLQFGGQVRQRYLYTDDAQQTEAHLEIREDGTVGGAADQSPESLLQLKALKPGVIQILGVKTSRFLCQRPDGALYGSLHFDPEACSFRELLLEDGYNVYQSEAHGLPLHLPGNKSPHRDPAPRGPARFLPLPGLPPALPEPPGILAPQPPDVGSSDPLSMVGPSQGRSPSYAS
For B3, the EC50 was 8.42 ± 4.1 nM in experiment [1] (setting [4]); 4.5 nM and 3.3 nM in experiment [1] (setting [6]); 3.96 ± 1.51 nM in experiment [2].

B4: FGF21 D164A: full length FGF21 with alanine at position 164 (protein)
chain: B3 chain with D164A
Consider B4, for which the EC-50 entry in experiment [1] (setting [5]) is “inactive”.

B5: FGF21 P171A: full length FGF21 with alanine at position 171 (protein)
chain: B3 chain with P171A
For B5, in experiment [1] (setting [6]), the EC50 turned out to be 4.5 nM.

B6: FGF21-19 K194A: chimeric analog: core of FGF21 1-156 and an extension of the FGF19 169-194 K194A peptide (protein)
chain: HPIPDSSPLLQFGGQVRQRYLYTDDAQQTEAHLEIREDGTVGGAADQSPESLLQLKALKPGVIQILGVKTSRFLCQRPDGALYGSLHFDPEACSFRELLLEDGYNVYQSEAHGLPLHLPGNKSPHRDPAPRGPARFLPLPGLPPALPEPPGILAPQPLETDSMDPFGLVTGLEAVRSPSFEA
In the case of B6, the “% maximal activity” value in experiment [1] (setting [5]) is 84%. Besides, the EC50 in experiment [1] (setting [6]) is 0.5 nM. The “fold more potent than native FGF21” value in experiment [1] (agonist activity of chimeric analog) is “approximately 5 fold”.

B7: FGF21 481K: analog of FGF21 481A where the C-terminal alanine is replaced with a lysine (protein)
chain: HPIPDSSPLLQFGGQVRQRYLYTDDAQQTECHLEIREDGTVGCAADQSPESLLQLKALKPGVIQILGVKTSRFLCQRPDGALYGSLHFDPEACSFREDLKEDGYNVYQSEAHGLPLHLPGDKSPHRKPAPRGPARFLPLPGLPPALPEPPGILAPQPPDVLSMDPFGLVGPSQGRSPSFEK
Turning to B7, the IC50 in experiment [1] was 0.56 ± 0.06 nM.

B8: FGF21 470K: analog of FGF21 470A where the C-terminal alanine is replaced with a lysine (protein)
chain: B7 chain with L161G, P171R
With B8, the IC50 in experiment [1] amounted to 6.14 ± 1.93 nM.

B9: FGF21 470A: modified FGF21 N-terminus fused to peptide 0470 (protein, listed as Homo sapiens)
chain: B7 chain with L161G, P171R, K181A
In turn, B9 showed an IC50 in experiment [1] of 0.61 ± 0.06 nM.

B10: FGF21 431K: analog of FGF21 431A where the C-terminal alanine is replaced with a lysine (protein)
chain: B7 chain with L161G
On to B10, for which, in experiment [1], the IC50 is 4.3 ± 0.07 nM.

B11: FGF21 482K: analog of FGF21 482A where the C-terminal alanine is replaced with a lysine (protein)
chain: B7 chain with L161S
In experiment [1], B11 returned an IC50 of 1.81 ± 0.18 nM.

B12: FGF21 482A: modified FGF21 N-terminus fused to peptide 0482 (protein, listed as Homo sapiens)
chain: B7 chain with L161S, K181A
Regarding B12, the concentration for half-maximal inhibition (IC50) in experiment [1] came out at 0.22 ± 0.03 nM.

B13: FGF21 486K: analog of FGF21 486A where the C-terminal alanine is replaced with a lysine (protein)
chain: B7 chain with L161G, M163S
B13 displayed an IC50 in experiment [1] of 3.16 ± 0.56 nM.

B14: FGF21 431A: FGF21 N-terminus (A31C, G43C, L98D, L100K, N121D, D127K) fused to peptide 0431 (protein, listed as Homo sapiens)
chain: B7 chain with L161G, K181A
The molecule B14 showed an IC50 in experiment [1] of 0.51 ± 0.21 nM.

B15: FGF21 480K: analog of FGF21 480A where the C-terminal alanine is replaced with a lysine (protein)
chain: B7 chain with L161F
Consider B15, for which the IC50 in experiment [1] came to 1.62 ± 0.54 nM.

B16: FGF21 481A: modified FGF21 N-terminus fused to peptide 0481 (protein, listed as Homo sapiens)
chain: B7 chain with K181A
In experiment [1], B16 registered an IC50 of 0.19 ± 0.08 nM.

B17: FGF21 480A: modified FGF21 N-terminus fused to peptide 0480 (protein, listed as Homo sapiens)
chain: B7 chain with L161F, K181A
On to B17, for which the half-inhibitory concentration (IC50) in experiment [1] amounted to 0.43 ± 0.04 nM.

B18: FGF21 486A: modified FGF21 N-terminus fused to peptide 0486 (protein, listed as Homo sapiens)
chain: B7 chain with L161G, M163S, K181A
With B18, the IC50 in experiment [1] is 0.21 ± 0.03 nM.

For orientation: IC50 means the concentration at which inhibition is half-maximal. Higher therefore signals a need for much substance.
